# Earlier results in article PMC8073936.
# Molecular target: TRF1 (Homo sapiens) (UniProt P54274)
# UniProt P54274, sequence (P54274 2-439): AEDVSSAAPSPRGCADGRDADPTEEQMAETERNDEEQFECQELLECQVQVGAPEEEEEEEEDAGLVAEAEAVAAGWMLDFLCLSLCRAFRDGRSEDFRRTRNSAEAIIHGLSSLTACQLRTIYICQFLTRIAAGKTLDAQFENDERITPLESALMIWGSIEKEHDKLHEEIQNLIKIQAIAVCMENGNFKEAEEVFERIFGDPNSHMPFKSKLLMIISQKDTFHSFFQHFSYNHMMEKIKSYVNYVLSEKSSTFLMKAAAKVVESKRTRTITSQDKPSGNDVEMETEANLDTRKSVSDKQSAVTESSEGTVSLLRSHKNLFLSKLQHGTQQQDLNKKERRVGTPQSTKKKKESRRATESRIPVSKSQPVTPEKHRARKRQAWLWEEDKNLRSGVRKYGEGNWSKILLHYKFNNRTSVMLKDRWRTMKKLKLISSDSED
substance,measurement,value
Ku70/80 (from UniProt P12956),Kd,0.4 nM
